Source: US7792645B2, “Three-dimensional structure of chalcone isomerase and methods of use thereof” (The Salk Institute for Biological Studies, priority 2000, dated 2010)
Where a chain is given by its changes, count along the chain named. In names and notes the source's numbering stands.

T1: CHI active site (Medicago sativa, UniProt P28012)
T1 construct: histidine tag (pHIS8 vector) (N, cleaved yes); made in house; host or cells: E. coli BL21(DE3)
T1 sequence (P28012 1-222): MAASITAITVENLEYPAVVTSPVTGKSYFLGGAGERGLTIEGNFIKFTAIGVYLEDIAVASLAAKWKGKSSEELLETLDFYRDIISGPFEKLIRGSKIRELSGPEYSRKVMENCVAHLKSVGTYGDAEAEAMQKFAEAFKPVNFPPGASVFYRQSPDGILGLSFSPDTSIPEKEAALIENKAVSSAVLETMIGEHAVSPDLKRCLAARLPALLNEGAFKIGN

T2: alfalfa chalcone synthase 2 (Medicago sativa, UniProt P30074)
T2 sequence (P30074 1-389): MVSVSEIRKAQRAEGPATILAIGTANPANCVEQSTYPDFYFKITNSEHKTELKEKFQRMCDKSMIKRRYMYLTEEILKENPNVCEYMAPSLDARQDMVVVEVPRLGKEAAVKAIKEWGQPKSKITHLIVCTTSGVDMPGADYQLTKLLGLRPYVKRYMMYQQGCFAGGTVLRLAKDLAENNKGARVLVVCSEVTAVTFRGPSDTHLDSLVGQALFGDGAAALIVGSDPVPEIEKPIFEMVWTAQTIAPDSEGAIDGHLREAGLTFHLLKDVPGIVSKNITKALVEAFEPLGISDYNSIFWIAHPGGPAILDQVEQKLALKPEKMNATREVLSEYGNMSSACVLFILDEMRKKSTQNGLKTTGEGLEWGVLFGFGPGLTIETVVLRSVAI

B1: CHI wild-type: chalcone isomerase from Medicago sativa (alfalfa), SEQ ID NO:1, expressed in E. coli (protein, listed as Medicago sativa)
chain: T1 sequence (P28012 1-222) with R36X, L38X, T48X, Y106X, K109X, V110X, N113X, T190X, M191X
modifications: MOD_RES (36) Arg, Met, Lys, Ala, His or Gln
B2: CHI Y106F: alfalfa chalcone isomerase mutant, Tyr 106 substituted by phenylalanine (protein, UniProt P28012 1-222, looked up, variant Y106F)
Chalcone--flavanone isomerase …: T1 sequence (P28012 1-222) with Y106F

Legend:
CHI active site = biological target: T1, CHI active site; assay: Co-crystallization of CHI with (2S/2R)-naringenin, X-ray structure; format: binding, Medicago sativa (alfalfa); conditions: commercial mixture of (2S)- and (2R)-naringenin used for co-crystallization
Experimental: Crystals of CHI (SEQ ID NO:1) were grown at 4° C. by vapor diffusion using the hanging drop method. A 2 μl drop containing a 1:1 mixture of 25 mg ml^−1 CHI and crystallization buffer (25% glycerol, 1.8-2.0 M ammonium sulfate and 0.05 M PIPES, pH 6.5) yielded diffraction quality crystals within a few days at 4° C. Crystals grew in space group P6522 with unit cell dimensions of a=90.37 Å; c=352.86 Å with two molecules per asymmetric unit and a solvent content of 72%. Native CHI diffraction data (105 K) were collected at beamline 7-1 of the Stanford Synchrotron Radiation Source (SSRL 7-1) on a 30 cm MAR imaging plate system. For generation of heavy atom derivatives, CHI crystals were soaked in mother liquor with either 1.2 mM K2OsCl6 or 1 mM HgCl2 for 12-16 hours. Heavy atom data (105 K) were collected at SSRL 9-1 on a 30 cm MAR imaging plate system. All images were indexed and integrated using DENZO and the reflections merged with SCALEPACK (Otwinowski, Z. & Minor, W., Methods Enzymol. 276:307-326, 1997). Data reduction was completed using programs from CCP4 (Collaborative Computational Project 4 (CCP4) Acta Crystallogr. D53:240-255, 1994) (See Table 3). […]

chalcone isomerase (CHI) [1] = assay: CHI enzyme assay, steady-state kinetics of 6′-deoxychalcone cyclization; format: biochemical, Medicago sativa (alfalfa); conditions: for kcat: cyclization of 6′-deoxychalcone, pH 7.5, substrate 2-50 μM; for kcat / Km: 25° C.; for Km: substrate 6′-deoxychalcone, pH 7.5
Experimental: CHI assays were performed at 25° C. in a 0.5 ml reaction volume containing 0.05 M Hepes (pH 7.5), 50 μM 6′-deoxychalcone, and 3% ethanol as co-solvent. Time-dependent decreases in 6′-deoxychalcone absorbance (λmax=390 nm; ε=29,400 M^−1 cm^−1) were monitored with a Beckman DU-640 spectrophotometer. Determination of steady-state kinetic constants used the standard assay system with varied concentrations of substrate (2-50 μM) following fitting to the Michaelis-Menton equation using KALEIDAGRAPH (Abelbeck Software).

[2] = biological target: T2, alfalfa chalcone synthase 2; assay: Gel filtration and analytical ultracentrifugation for protein association in vitro; format: binding
chalcone isomerase (CHI) [3] = conditions: cyclization of chalcone; cited from earlier work

Row | Molecule | binding to CHI active site in co-crystal (CHI active site) | kcat (chalcone isomerase (CHI) [1]) | kcat (chalcone isomerase (CHI) [1]; listed as wild-type CHI) | Km (chalcone isomerase (CHI) [1]) | association of alfalfa CHI and alfalfa chalcone synthase 2 [2] | enzyme-catalyzed rate over spontaneous conversion rate (chalcone isomerase (CHI) [3]) | reduction in reaction rate (chalcone isomerase (CHI) [1]; Y106F mutant versus wild-type CHI, 6′-deoxychalcone) | kcat (chalcone isomerase (CHI) [1]; listed as CHI Y106F mutant)
1 | O=C1C[C@@H](c2ccc(O)cc2)Oc2cc(O)cc(O)c21 [(2S)-naringenin, 5,7,4′-trihydroxyflavanone] | bound the CHI active site |  |  |  |  |  |  | 
2 | B1 |  | 73.07 ± 8.62 s⁻¹ | 73.07 s⁻¹ | 25.7 µM | failed to detect association | 10^7 fold |  | 
3 | B2 |  | 1.15 ± 0.085 s⁻¹ |  | 29.1 µM |  |  | 100 fold | 1.15 s⁻¹
